Where two headings read alike, the source gives them in different places.
Key:
[1] = molecular target: T1, HCV ORFs (Gal4-DB fusions) (Hepatitis C virus genotype 1b, UniProt Q9WMX2); format: binding, HCV genotype 1b, isolate con1; settings: human protein as prey
T1 construct: expressed in transfected cells; host or cells: Saccharomyces cerevisiae MAV203 (IMAP1) / AH109 (IMAP2)

[2] = system: HCV ORFs (Gal4-DB fusions); format: binding, HCV genotype 1b, isolate con1; settings: human protein listed by gene symbol; the value names the HCV protein it interacts with
HCV proteins = molecular target: T2, HCV proteins (Hepatitis C virus genotype 1b, UniProt Q9WMX2); test: Validation by Y2H pairwise matrices; format: binding;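 note: yeast two-hybrid pairwise tests of interactions first found in Y2H screens of HCV bait proteins against human cDNA libraries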
T2 construct: expressed in transfected cells

[3] = validation of interaction with HCV protein NS3
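Throughout, for IMAP Y2H IMAP1 (number of IST): yeast two-hybrid screens using HCV genotype 1b proteins fused to Gal4-DB as baits against prey cDNA libraries from human spleen and foetal brain, IMAP1 via transformation and IMAP2 via mating.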
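Throughout, for IMAP Y2H IMAP2 (number of IST): yeast two-hybrid screens using HCV genotype 1b proteins fused to Gal4-DB as baits against prey cDNA libraries from human spleen and foetal brain, IMAP1 via transformation and IMAP2 via mating.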
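Throughout, for Interaction with viral protein: yeast two-hybrid screens using HCV genotype 1b proteins fused to Gal4-DB as baits against prey cDNA libraries from human spleen and foetal brain, IMAP1 via transformation and IMAP2 via mating.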

B1: CBY1 (protein, UniProt Q9Y3M2 1-126, looked up)
Protein chibby homolog 1: MPFFGNTFSPKKTPPRKSASLSNLHSLDRSTREVELGLEYGSPTMNLAGQSLKFENGQWIAETGVSGGVDRREVQRLRRRNQQLEEENNLLRLKVDILLDMLSESTAESHLMEKELDELRISRKRK
- IMAP Y2H IMAP1 (number of IST) ([1]; HCV protein NS3 as bait): 2
- Interaction with viral protein [2]: NS3
- Y2H matrices (HCV proteins; [3]): +

B2: CCHCR1 (protein, UniProt Q8TD31 1-782, looked up)
Coiled-coil alpha-helical rod …: MFPPSGSTGLIPPSHFQARPLSTLPRMAPTWLSDIPLVQPPGHQDVSERRLDTQRPQVTMWERDVSSDRQEPGRRGRSWGLEGSQALSQQAEVIVRQLQELRRLEEEVRLLRETSLQQKMRLEAQAMELEALARAEKAGRAEAEGLRAALAGAEVVRKNLEEGSQRELEEVQRLHQEQLSSLTQAHEEALSSLTSKAEGLEKSLSSLETRRAGEAKELAEAQREAELLRKQLSKTQEDLEAQVTLVENLRKYVGEQVPSEVHSQTWELERQKLLETMQHLQEDRDSLHATAELLQVRVQSLTHILALQEEELTRKVQPSDSLEPEFTRKCQSLLNRWREKVFALMVQLKAQELEHSDSVKQLKGQVASLQEKVTSQSQEQAILQRSLQDKAAEVEVERMGAKGLQLELSRAQEARRRWQQQTASAEEQLRLVVNAVSSSQIWLETTMAKVEGAAAQLPSLNNRLSYAVRKVHTIRGLIARKLALAQLRQESCPLPPPVTDVSLELQQLREERNRLDAELQLSARLIQQEVGRAREQGEAERQQLSKVAQQLEQELQQTQESLASLGLQLEVARQGQQESTEEAASLRQELTQQQELYGQALQEKVAEVETRLREQLSDTERRLNEARREHAKAVVSLRQIQRRAAQEKERSQELRRLQEEARKEEGQRLARRLQELERDKNLMLATLQQEGLLSRYKQQRLLTVLPSLLDKKKSVVSSPRPPECSASAPVAAAVPTRESIKGSLSVLLDDLQDLSEAISKEEAVCQGDNLDRCSSSNPQMSS
- IMAP Y2H IMAP1 (number of IST) ([1]; HCV protein NS3 as bait): 1
- IMAP Y2H IMAP2 (number of IST) ([1]; HCV protein NS3 as bait): 2
- Interaction with viral protein [2]: NS3
- Y2H matrices (HCV proteins; [3]): +

B3: CHPF (protein, UniProt Q8IZ52 1-775, looked up)
Chondroitin sulfate synthase 2: MRASLLLSVLRPAGPVAVGISLGFTLSLLSVTWVEEPCGPGPPQPGDSELPPRGNTNAARRPNSVQPGAEREKPGAGEGAGENWEPRVLPYHPAQPGQAAKKAVRTRYISTELGIRQRLLVAVLTSQTTLPTLGVAVNRTLGHRLERVVFLTGARGRRAPPGMAVVTLGEERPIGHLHLALRHLLEQHGDDFDWFFLVPDTTYTEAHGLARLTGHLSLASAAHLYLGRPQDFIGGEPTPGRYCHGGFGVLLSRMLLQQLRPHLEGCRNDIVSARPDEWLGRCILDATGVGCTGDHEGVHYSHLELSPGEPVQEGDPHFRSALTAHPVRDPVHMYQLHKAFARAELERTYQEIQELQWEIQNTSHLAVDGDQAAAWPVGIPAPSRPASRFEVLRWDYFTEQHAFSCADGSPRCPLRGADRADVADVLGTALEELNRRYHPALRLQKQQLVNGYRRFDPARGMEYTLDLQLEALTPQGGRRPLTRRVQLLRPLSRVEILPVPYVTEASRLTVLLPLAAAERDLAPGFLEAFATAALEPGDAAAALTLLLLYEPRQAQRVAHADVFAPVKAHVAELERRFPGARVPWLSVQTAAPSPLRLMDLLSKKHPLDTLFLLAGPDTVLTPDFLNRCRMHAISGWQAFFPMHFQAFHPAVAPPQGPGPPELGRDTGRFDRQAASEACFYNSDYVAARGRLAAASEQEEELLESLDVYELFLHFSSLHVLRAVEPALLQRYRAQTCSARLSEDLYHRCLQSVLEGLGSRTQLAMLLFEQEQGNST
- IMAP Y2H IMAP1 (number of IST) ([1]; HCV protein NS3 as bait): 1
- Interaction with viral protein [2]: NS3
- Y2H matrices (HCV proteins; [3]): +

B4: LMNB1 (protein, UniProt P20700 2-583, looked up)
Lamin-B1: ATATPVPPRMGSRAGGPTTPLSPTRLSRLQEKEELRELNDRLAVYIDKVRSLETENSALQLQVTEREEVRGRELTGLKALYETELADARRALDDTARERAKLQIELGKCKAEHDQLLLNYAKKESDLNGAQIKLREYEAALNSKDAALATALGDKKSLEGDLEDLKDQIAQLEASLAAAKKQLADETLLKVDLENRCQSLTEDLEFRKSMYEEEINETRRKHETRLVEVDSGRQIEYEYKLAQALHEMREQHDAQVRLYKEELEQTYHAKLENARLSSEMNTSTVNSAREELMESRMRIESLSSQLSNLQKESRACLERIQELEDLLAKEKDNSRRMLTDKEREMAEIRDQMQQQLNDYEQLLDVKLALDMEISAYRKLLEGEEERLKLSPSPSSRVTVSRASSSRSVRTTRGKRKRVDVEESEASSSVSISHSASATGNVCIEEIDVDGKFIRLKNTSEQDQPMGGWEMIRKIGDTSVSYKYTSRYVLKAGQTVTIWAANAGVTASPPTDLIWKNQNSWGTGEDVKVILKNSQGEEVAQRSTVFKTTIPEEEEEEEEAAGVVVEEELFHQQGTPRASNRSC
- IMAP Y2H IMAP1 (number of IST) ([1]; HCV protein p7 as bait): 1
- Y2H matrices (HCV proteins; interaction with HCV protein p7): +

B5: CORO1B (protein, UniProt Q9BR76 1-489, looked up)
Coronin-1B: MSFRKVVRQSKFRHVFGQPVKNDQCYEDIRVSRVTWDSTFCAVNPKFLAVIVEASGGGAFLVLPLSKTGRIDKAYPTVCGHTGPVLDIDWCPHNDEVIASGSEDCTVMVWQIPENGLTSPLTEPVVVLEGHTKRVGIIAWHPTARNVLLSAGCDNVVLIWNVGTAEELYRLDSLHPDLIYNVSWNHNGSLFCSACKDKSVRIIDPRRGTLVAEREKAHEGARPMRAIFLADGKVFTTGFSRMSERQLALWDPENLEEPMALQELDSSNGALLPFYDPDTSVVYVCGKGDSSIRYFEITEEPPYIHFLNTFTSKEPQRGMGSMPKRGLEVSKCEIARFYKLHERKCEPIVMTVPRKSDLFQDDLYPDTAGPEAALEAEEWVSGRDADPILISLREAYVPSKQRDLKISRRNVLSDSRPAMAPGSSHLGAPASTTTAADATPSGSLARAGEAGKLEEVMQELRALRALVKEQGDRICRLEEQLGRMENGDA
- IMAP Y2H IMAP1 (number of IST) ([1]; HCV protein NS3 as bait): 8
- Interaction with viral protein [2]: NS3
- Y2H matrices (HCV proteins; [3]): +

B6: CCDC66 (protein, UniProt A2RUB6 1-948, looked up)
Coiled-coil domain-containing …: MNLGDGLKLETELLDGKTKLILSPYEHKSKISVKMGNKAKIAKCPLRTKTGHILKSTQDTCIGSEKLLQKKPVGSETSQAKGEKNGMTFSSTKDLCKQCIDKDCLHIQKEISPATPNMQKTRNTVNTSLVGKQKPHKKHITAENMKSSLVCLTQDQLQQILMTVNQGNRSLSLTENGKEAKSQYSLYLNSISNQPKDENIMGLFKKTEMVSSVPAENKSVLNEHQETSKQCEQKIAIENEWKPADIFSTLGERECDRSSLEAKKAQWRKELDEQVALKKKEKEVSEKWNDPWKKSESDKIIWEKHQILDQSRETVLLEHPFSAVKQELQRKWIEELNKQIEDDRQRKIEEKIIYSKGEEHDRWAMHFDSLKSYPGSQSQLFSQSTHKQPEYFCVSPDTQELADVSSVCTPTTGSQVEPSEEEHIAKPIKDVVMANSKKTNFLRSMTALLDPAQIEERDRRRQKQLEHQKAITAQVEEKRRKKQLEEEQRKKEEQEEELRLAQEREEMQKQYEEDILKQKQKEEIMTLKTNELFQTMQRAQELAQRLKQEQRIRELAQKGHDTSRLIKNLGVDTIQMEYNASNISNSRHDSDEISGKMNTYMNSTTSKKDTGVQTDDLNIGIFTNAESHCGSLMERDITNCSSPEISAELIGQFSTKKNKQELTQDKGASLEKENNRCNDQCNQFTRIEKQTKHMKKYPKRPDWNINKPPKRYIPASEKYPKQLQKQREEKKVRRQMELLHLVEKNNPGHLSQNRGISPEIFHSSHQETESKLRWHLVKKEEEPLNIHSFSKERSPSSPVPVVKNRTQQTQNTLHLPLKNSSYERENLISGSNQTELSSGISESSHFIPYVRTNEIYYLDPDAPLSGPSTQDPQYQNSQDCGQKRQLFDSDCVRDPLLNPNMVKNRDRQQAILKGLSELRQGLLQKQKELESSLLPLAENQEESFGSSF
- IMAP Y2H IMAP1 (number of IST) ([1]; HCV protein NS3 as bait): 1
- IMAP Y2H IMAP2 (number of IST) ([1]; HCV protein NS3 as bait): 4
- Interaction with viral protein [2]: NS3
- Y2H matrices (HCV proteins; [3]): +

B7: CD5L (protein, UniProt O43866 20-347, looked up)
CD5 antigen-like: SPSGVRLVGGLHRCEGRVEVEQKGQWGTVCDDGWDIKDVAVLCRELGCGAASGTPSGILYEPPAEKEQKVLIQSVSCTGTEDTLAQCEQEEVYDCSHDEDAGASCENPESSFSPVPEGVRLADGPGHCKGRVEVKHQNQWYTVCQTGWSLRAAKVVCRQLGCGRAVLTQKRCNKHAYGRKPIWLSQMSCSGREATLQDCPSGPWGKNTCNHDEDTWVECEDPFDLRLVGGDNLCSGRLEVLHKGVWGSVCDDNWGEKEDQVVCKQLGCGKSLSPSFRDRKCYGPGVGRIWLDNVRCSGEEQSLEQCQHRFWGFHDCTHQEDVAVICSG
- IMAP Y2H IMAP1 (number of IST) ([1]; HCV protein NS3 as bait): 1
- IMAP Y2H IMAP2 (number of IST) ([1]; HCV protein NS3 as bait): 1
- Interaction with viral protein [2]: NS3
- Y2H matrices (HCV proteins; [3]): +

B8: CCDC52 (protein, UniProt Q8N0Z3 1-855, looked up)
Spindle and …: MSFVRVNRCGPRVGVRKTPKVKKKKTSVKQEWDNTVTDLTVHRATPEDLVRRHEIHKSKNRALVHWELQEKALKRKWRKQKPETLNLEKRRLSIMKEILSDQYQMQDVLEKSDHLIAAAKELFPRRRTGFPNVTVAPDSSQGPIVVNQDPITQSIFNESVIEPQALNDVDGEEEGTVNSQSGESENENELDNSLNSQSNTNTDRFLQQLTEENFELISKLWTDIQQKIATQSQITPPGTPSSALSSGEQRAALNATNAVKRLQTRLQPEESTETLDSSYVVGHVLNSRKQKQLLNKVKRKPNLHALSKPKKNISSGSTTSADLPNRTNSNLDVLKHMIHEVEHEMEEYERWTGREVKGLQSSQGLTGFTLSLVSSLCRLVRYLKESEIQLRKEVETRQQLEQVLGDHRELIDALTAEILRLREENAATQARLQQYMVTTDEQLISLTHAIKNCPVINNRQEIQASESGATGRRVMDSPERPVVNANVSVPLMFREEVAEFPQEELPVKLSQVPDPPDNMNLAKNFPAHIFEPAVLLTPPRQKSNLKFSPLQDVLRRTVQTRPAPRLPPTVEIIEKEQNWEEKTLPIDTDIQNSSEENRLFTQRWRVSHMGEDLENKTQAPFVNLSQPLCNSHSNTQQSRSPTFSEELPVLGDGQQLRTNESLIQRKDIMTRIADLTLQNSAIKAHMNNIIEPRGEQGDGLRELNKQESASDMTSTFPVAQSLTPGSMEERIAELNRQSMEARGKLLQLIEQQKLVGLNLSPPMSPVQLPLRAWTEGAKRTIEVSIPGAEAPESSKCSTVSPVSGINTRRSSGATGNSCSPLNATSGSGRFTPLNPRAKIEKQNEEGWFALSTHVS
- IMAP Y2H IMAP1 (number of IST) ([1]; HCV protein NS3 as bait): 1
- Interaction with viral protein [2]: NS3
- Y2H matrices (HCV proteins; [3]): +

B9: CTGF (protein, UniProt P29279 27-349, looked up)
CCN family member 2: QNCSGPCRCPDEPAPRCPAGVSLVLDGCGCCRVCAKQLGELCTERDPCDPHKGLFCHFGSPANRKIGVCTAKDGAPCIFGGTVYRSGESFQSSCKYQCTCLDGAVGCMPLCSMDVRLPSPDCPFPRRVKLPGKCCEEWVCDEPKDQTVVGPALAAYRLEDTFGPDPTMIRANCLVQTTEWSACSKTCGMGISTRVTNDNASCRLEKQSRLCMVRPCEADLEENIKKGKKCIRTPKISKPIKFELSGCTSMKTYRAKFCGVCTDGRCCTPHRTTTLPVEFKCPDGEVMKKNMMFIKTCACHYNCPGDNDIFESLYYRKMYGDMA
- IMAP Y2H IMAP1 (number of IST) ([1]; HCV protein NS3 as bait): 1
- Interaction with viral protein [2]: NS3
- Y2H matrices (HCV proteins; [3]): +
